Common to all, as to test: EMSA; Gel-shift buffer not given (as described in ref. 6); TnsD stored in 500 mM KCl, 50 mM Tris-HCl pH 8.0, 1 mM EDTA, 2 mM DTT, 25% glycerol
Holding throughout (conditions): protein: recombinant; tags: intein-chitin tag, cleaved with DTT
For orientation: A gel shift assay detects complexes by their altered migration in electrophoresis.

The target of one data set is T1, TnsD A497I (Escherichia coli (transposon Tn7), UniProt P13991 1-508, A497I).
T1 sequence: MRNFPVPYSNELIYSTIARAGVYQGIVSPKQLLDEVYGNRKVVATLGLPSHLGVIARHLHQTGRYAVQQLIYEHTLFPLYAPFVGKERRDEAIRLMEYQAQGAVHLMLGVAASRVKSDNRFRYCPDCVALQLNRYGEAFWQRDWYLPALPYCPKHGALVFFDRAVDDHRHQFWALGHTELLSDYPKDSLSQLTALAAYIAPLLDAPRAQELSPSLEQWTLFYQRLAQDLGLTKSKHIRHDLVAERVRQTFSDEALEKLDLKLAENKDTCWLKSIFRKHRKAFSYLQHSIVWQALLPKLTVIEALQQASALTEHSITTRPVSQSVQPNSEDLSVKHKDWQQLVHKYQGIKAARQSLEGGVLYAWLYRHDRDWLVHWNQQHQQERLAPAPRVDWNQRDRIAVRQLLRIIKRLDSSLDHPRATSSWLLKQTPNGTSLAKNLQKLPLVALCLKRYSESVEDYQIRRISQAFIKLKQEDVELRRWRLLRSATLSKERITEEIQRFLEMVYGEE

The target in another data set is T2, TnsD A486H (Escherichia coli (transposon Tn7), UniProt P13991 1-508, A486H).
T2 sequence: T1 sequence with A486H, I497A

The next data set deals with T3, TnsD G109E (Escherichia coli (transposon Tn7), UniProt P13991 1-508, G109E).
T3 sequence: T1 sequence with G109E, I497A

The target in the next data set is T4, TnsD P417L (Escherichia coli (transposon Tn7), UniProt P13991 1-508, P417L).
T4 sequence: T1 sequence with P417L, I497A

Residue numbers refer to the chain shown, from its start.

B1: attTn7 wt (+23 to +58) (dsDNA)
DNA 1: CCGCGTAACCTGGCAAAATCGGTTACGGTTGAGTAA
DNA 2: TTACTCAACCGTAACCGATTTTGCCAGGTTACGCGG
B1: the binding signal with TnsD A497I is 0.05 relative to wt; in the data set with TnsD A486H it was 0.1 relative to wt; with TnsD G109E, 0.05 relative to wt; with TnsD P417L, 0.07 relative to wt.

The values are drawn from PMC2918618, “Characterization of the TnsD-attTn7 complex that promotes site-specific insertion of Tn7” (Mobile DNA, 2010).
